Measurements published in US20070105162A1, “Monovalent avidin and streptavidin compositions” (Massachusetts Institute of Technology, priority 2005, published 2007).

Assays:
[1] = Electrospray ionization mass spectrometry: biotin molecules bound per avidin tetramer; type: binding; settings: spectra with or without biotin
Method: Biospin columns (Bio-Rad) are equilibrated by spinning 5 times in 500 μL of 15 mM ammonium acetate pH 7.8 at 1000 g for 2 min. Then 30-50 μL of 30 μM protein in PBS is buffer-exchanged into 15 mM ammonium acetate pH 7.8 using the pre-equilibrated Biospin columns by spinning for 20 s at 1000 g. To ensure that PBS is completely removed, the flow-through is again buffer-exchanged with a second pre-equilibrated column for 20 s. This procedure also removes free biotin when the starting 30 μM avidin forms are incubated with 200 μM biotin. Less than 2 min before introducing into the mass spectrometer, the buffer-exchanged samples are diluted with a solution of 1:1 15 mM ammonium acetate pH 7.8 and 78% acetonitrile, 0.01% trifluoroacetic acid.
An Advion nanospray robot (Advion BioSystems, Ithica, N.Y.) with a back-pressure of 0.45 Psi introduces the samples into the mass spectrometer, an 8.5 Tesla custom-built Electrospray Ionisation-Fourier Transform Mass Spectrometer. To visualize the non-covalent tetramers and non-covalent biotin binding in the high m/z range, the following settings are used: Chirp rate=750 Hz, Amplitude=0.5 V p-p, Tube lens=200 V, Capillary heater 2 V, Quad filter=−20 V, Skimmer=0 V, Capillary offset=34 V, X-fer=−110 V, Leak gas=4.2×10^−5 Torr. The capillary heater is kept low and the Quad filter and Skimmer are kept either high or off to prevent subunit dissociation. The transfer is set to this low value of −110 V in order to visualize the high m/z region.
The masses are calculated manually by first determining the charge state. The final mass is determined by multiplying the observed m/z by the charge and subtracting the mass corresponding to the addition of protons to give that charge. This calculation is repeated for each charge state and the mean and standard deviation reported. The spectra are calibrated with tetrameric avidin, after its monomer mass is determined under denaturing conditions. […]

[2] = Subunit exchange of monovalent avidin over time by SDS-PAGE; type: physicochemical
Method: (§1) Methods described in the Avidin Methods section above herein are used for the following production and testing of monovalent avidin. Tests are performed to determine whether monovalent avidin will rearrange its subunit composition over time. […] Wild-type avidin and A1D3 are heated in PBS at various temperatures and tetramer disassembly is determined by SDS-PAGE.

[3] = Off-rate of 3H-biotin from streptavidin (cold biotin chase); type: binding; settings: 50 μM cold biotin chase, 5 hours at 37° C., ± s.e.m.
Method: (Green, N. M. Methods in Enzymol. 184: 51-67, 1990). Dissociation was then initiated by addition of cold biotin at a final concentration of 50 μM and time-points taken over 5 hours at 37° C. 50 μL aliquots were removed and added to 200 μL 0.2M ZnSO4 chilled on ice, followed by 200 μL 0.2 M NaOH. The protein precipitate was pelleted by centrifugation at 16,500 g for 5 min, and ^3H-biotin in the supernatant was measured by liquid scintillation counting. Data were plotted as ln(fraction bound) versus time, and fit to a straight line by linear regression. Dissociation rates were deduced from the slope of the line and the equation: ln(fraction bound)=−koff(t) where fraction bound=(total ^3H-biotin−free ^3H-biotin at timepoint)/(total ^3H-biotin−free ^3H-biotin before cold biotin chase).

[4] = Thermostability assay of avidin tetramer (SDS-PAGE); type: physicochemical; settings: 100° C., PBS
Method: 2.3 μM wild-type avidin or chimeric avidin in PBS is heated at the indicated temperature for 3 min in a PTC-200 PCR machine (MJ Research; Waltham, Mass.) and then immediately placed on ice (Bayer, E. A. et al. Electrophoresis 17: 1319-1324, 1996). Samples are mixed with 6×SDS-PAGE loading buffer and loaded onto a 16% polyacrylamide gel.
as §1

[5] = Subunit exchange of monovalent streptavidin over time by SDS-PAGE; type: physicochemical; settings: for A1D3 rearranged into D4: PBS
Method: Methods described in the Methods section above herein were used for the following production and testing of monovalent streptavidin. Tests were performed to determine whether monovalent streptavidin would rearrange its subunit composition over time.

[6] = 37° C. one day or room temperature one week

Substance | biotin binding per avidin tetramer by mass spectrometry (in words) [1] | A1D3 avidin rearranged into D4 ([2]; 37° C. for one day or room temperature for one week) | Formation of A2D2 from subunit exchange [2, 6] | off-rate from biotin [3] | fraction remaining tetrameric on heating [4] | A1D3 rearranged into D4 ([5]; 37° C. incubation for one day) [%] | Formation of A2D2 from subunit exchange [5, 6] | A1D3 rearranged into D4 ([5]; room temperature incubation for one week) [%]
D4: Streptavidin tetramer with 4 dead subunits (D: N23A, S27D, S45A, SEQ ID NO:3) [Tetramer D4] | No biotin binding |  |  |  |  |  |  | 
A1D3: Monovalent streptavidin tetramer: one His6-tagged wild-type (A) subunit and three dead (D) subunits [Tetramer A1D3] | single biotin | small percentage | not detected | 6.14±0.19×10^−5 s^−1 | significant fraction | 2 | not detected | 3
